Read-outs that look alike come from different tables or passages of the source.
Experiments:
Experiment in all cases: FRET or BRET
[1] = target: Venus-IQGAP1 (human) (UniProt P46940)
[2] = target: mCherry-actin (UniProt P60709)
[3] = target: mCherry-actin (UniProt P60709); remark: listed apart in the source
[4] = target: mCherry-actin (UniProt P60709); remark: listed apart in the source

Sequence of Venus-IQGAP1 (P46940 whole entry): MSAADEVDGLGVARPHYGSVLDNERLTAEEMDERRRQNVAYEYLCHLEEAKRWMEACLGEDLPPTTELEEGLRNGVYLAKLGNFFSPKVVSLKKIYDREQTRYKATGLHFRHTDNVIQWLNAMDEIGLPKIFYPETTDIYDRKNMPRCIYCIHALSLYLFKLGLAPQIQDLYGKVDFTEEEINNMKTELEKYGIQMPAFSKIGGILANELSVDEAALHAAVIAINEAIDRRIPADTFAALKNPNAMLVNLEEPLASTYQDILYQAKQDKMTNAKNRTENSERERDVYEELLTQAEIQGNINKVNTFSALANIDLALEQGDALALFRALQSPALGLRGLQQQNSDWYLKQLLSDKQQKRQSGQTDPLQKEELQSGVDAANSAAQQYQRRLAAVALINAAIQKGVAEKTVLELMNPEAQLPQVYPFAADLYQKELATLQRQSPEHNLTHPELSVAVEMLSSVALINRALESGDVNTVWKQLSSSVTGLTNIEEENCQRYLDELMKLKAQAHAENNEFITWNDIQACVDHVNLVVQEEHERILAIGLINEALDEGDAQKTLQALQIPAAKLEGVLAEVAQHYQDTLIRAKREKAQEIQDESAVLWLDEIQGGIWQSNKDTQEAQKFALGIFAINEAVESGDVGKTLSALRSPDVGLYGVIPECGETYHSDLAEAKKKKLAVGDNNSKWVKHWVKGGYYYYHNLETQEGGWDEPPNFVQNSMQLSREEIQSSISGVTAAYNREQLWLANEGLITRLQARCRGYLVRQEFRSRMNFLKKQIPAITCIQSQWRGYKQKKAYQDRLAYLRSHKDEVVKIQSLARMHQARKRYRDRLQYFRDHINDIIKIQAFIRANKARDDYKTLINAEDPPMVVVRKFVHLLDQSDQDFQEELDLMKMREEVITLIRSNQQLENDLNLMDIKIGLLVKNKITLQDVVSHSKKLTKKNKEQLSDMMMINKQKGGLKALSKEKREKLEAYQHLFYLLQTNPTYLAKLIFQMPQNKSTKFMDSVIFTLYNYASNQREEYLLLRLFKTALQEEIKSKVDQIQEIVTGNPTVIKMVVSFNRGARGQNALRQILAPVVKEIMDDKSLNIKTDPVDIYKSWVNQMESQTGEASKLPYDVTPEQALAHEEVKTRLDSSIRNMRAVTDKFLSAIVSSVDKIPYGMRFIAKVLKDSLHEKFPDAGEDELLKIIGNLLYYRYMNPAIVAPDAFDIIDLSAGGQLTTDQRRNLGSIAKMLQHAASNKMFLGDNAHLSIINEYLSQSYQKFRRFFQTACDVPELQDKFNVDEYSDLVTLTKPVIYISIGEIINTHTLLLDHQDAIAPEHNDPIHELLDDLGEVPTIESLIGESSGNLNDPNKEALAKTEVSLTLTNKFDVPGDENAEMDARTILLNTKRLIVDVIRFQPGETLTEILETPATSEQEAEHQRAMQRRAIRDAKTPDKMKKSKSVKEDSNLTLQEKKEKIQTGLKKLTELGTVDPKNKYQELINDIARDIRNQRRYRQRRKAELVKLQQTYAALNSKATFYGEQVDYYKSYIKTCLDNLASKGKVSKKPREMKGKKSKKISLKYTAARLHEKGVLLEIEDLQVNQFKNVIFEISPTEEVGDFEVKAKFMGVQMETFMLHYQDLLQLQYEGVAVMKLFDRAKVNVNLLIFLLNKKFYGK
Sequence of Venus-IQGAP1 (human) (P46940 whole entry): as above
Sequence of CFP-Cdc42, P60953 1-191 (natural protein; other documents disagree on this pair) (P60953 whole entry): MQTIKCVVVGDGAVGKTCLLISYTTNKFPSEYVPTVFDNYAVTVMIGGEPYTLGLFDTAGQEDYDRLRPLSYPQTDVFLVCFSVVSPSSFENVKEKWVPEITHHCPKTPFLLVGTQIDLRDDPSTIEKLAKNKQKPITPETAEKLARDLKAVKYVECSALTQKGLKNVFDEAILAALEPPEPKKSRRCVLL

Row | Substance | FRET efficiency E% at low D:A ratios (regression line) [1] | average FRET efficiency E% [1] | average FRET efficiency E% [2] | FRET efficiency E% at low D:A ratios (regression line) [3] | average FRET efficiency E% [3] | FRET efficiency E% at low D:A ratios (regression line) [4]
1 | CFP-Cdc42, P60953 1-191 (natural protein; other documents disagree on this pair) | 25% | 20% |  |  |  | 
2 | Venus-IQGAP1 (from UniProt P46940 1-1657) (natural protein) |  |  | 26% | 25 to 35% | 31% | 25 to 35%
